From patent publication US20250388623A1 (CHENGDU BRILLIANT INSPIRATION BIOTHERAPEUTICS, published 2025)
Bridge positions count the residues as written; N and C are the ends. Ends that are not written are not given here.

B1: SEQ ID NO: 40 (peptide)
peptide: TQDAEDN
modifications: Head-to-tail cyclization
notes: cyclic peptide; also called TQDAEDN; cyclo[Thr-Gln-Asp-Ala-Glu-Asp-Asn]
B2: SEQ ID NO: 45 (peptide)
peptide: QDAEDNT
modifications: Head-to-tail cyclization
notes: cyclic peptide; also called QDAEDNT; cyclo[Gln-Asp-Ala-Glu-Asp-Asn-Thr]
B3: SEQ ID NO: 50 (peptide)
peptide: YRVRFLAKENVTQDAEDN
notes: Printed as 'Without modification'; also called Positive control group

Columns and labels:
[1] = target: TSP-1 protein expressed by PMA-differentiated THP-1 macrophage-like cells (UniProt P07996 19-1170); assay: cell-based or functional assay
[2] = target: T1, TSP-1 protein (novoprotein, Catalog No. CU45) (UniProt P07996 19-1170, limits assumed); assay: competition ELISA, TSP-1 coated, CD36-Fc 0.25 µg/mL as competitor, peptide 100 µM
T1 construct: Bought protein coated on the ELISA plate; also called Thrombospondin-1
Experimental: (§1) ELISA assay was performed to detect the ability of the polypeptides to block the binding of TSP-1 protein to CD36, a TSP-1 receptor protein. TSP-1 protein (novoprotein, Catalog No. CU45) was diluted to 2 μg/mL using 100 mM carbonate buffer and added to sample wells (100 μL/well) of a 96-well ELISA plate (Thermo, Catalog No. 437111), and incubated overnight at 4° C.; after washing the plate twice using 1×PBST wash solution, 200 μL of 1.5% BSA (Sigma, Catalog No. B2064) was added to each well, and incubated at 37° C. for 2 h; after washing the plate 3 times using 1×PBST wash solution, the analytes were added (100 μL/well, 3 replicate wells; for the control group, 0.25 μg/mL of Fc-tagged CD36 protein (R&D Systems, Catalog No. 1955-CD-050); and for the polypeptide-treated groups, a mixture containing Fc-tagged CD36 protein and polypeptide at final concentrations of 0.25 μg/mL and 100 μM, respectively), and incubated at 37° C. for 3 h. After washing the plate 5 times using 1×PBST wash solution, a 1:500 dilution solution of FITC-labeled anti-Fc-tagged antibody (Beyotime, Catalog No. A0556) was added, and incubated for 1 h at 37° C.; after washing the plate 5 times using 1×PBST wash solution, a multifunctional ELISA instrument (TECAN, model: Infinite 200 Pro) was used to detect the intensity of FITC fluorescence signal in each sample well. The ability of the polypeptides to block CD36 binding to TSP-1 protein (Table 2-1) was assessed by calculating the ratio of the fluorescence signal from the polypeptide-treated groups to that of the control group, allowing for the determination of the blocking rate of the polypeptides in inhibiting CD36 binding to TSP-1 protein, i.e., (fluorescence signal of the control group-fluorescence signal of the polypeptide-treated group)/fluorescence signal of the control group×100%. Based on the blocking rate results obtained at the single concentration and on the polypeptide molecule properties, the preferred polypeptide molecules were assayed for concentration dependence (at 0 μM, 0.5 μM, 1 μM, 5 μM, 10 μM, and 100 μM), and IC₅₀ values of the polypeptides for blocking CD36 binding to TSP-1 protein were determined to further assess the abilities of the preferred polypeptide molecules to block the binding of CD36 to TSP-1 (Table 2-2).

[3] = target: T1, TSP-1 protein (novoprotein, Catalog No. …); assay: competition ELISA, TSP-1 coated, CD36-Fc as competitor, peptide 0-100 µM
Experimental: as §1

T1 sequence (P07996 19-1170 limits assumed): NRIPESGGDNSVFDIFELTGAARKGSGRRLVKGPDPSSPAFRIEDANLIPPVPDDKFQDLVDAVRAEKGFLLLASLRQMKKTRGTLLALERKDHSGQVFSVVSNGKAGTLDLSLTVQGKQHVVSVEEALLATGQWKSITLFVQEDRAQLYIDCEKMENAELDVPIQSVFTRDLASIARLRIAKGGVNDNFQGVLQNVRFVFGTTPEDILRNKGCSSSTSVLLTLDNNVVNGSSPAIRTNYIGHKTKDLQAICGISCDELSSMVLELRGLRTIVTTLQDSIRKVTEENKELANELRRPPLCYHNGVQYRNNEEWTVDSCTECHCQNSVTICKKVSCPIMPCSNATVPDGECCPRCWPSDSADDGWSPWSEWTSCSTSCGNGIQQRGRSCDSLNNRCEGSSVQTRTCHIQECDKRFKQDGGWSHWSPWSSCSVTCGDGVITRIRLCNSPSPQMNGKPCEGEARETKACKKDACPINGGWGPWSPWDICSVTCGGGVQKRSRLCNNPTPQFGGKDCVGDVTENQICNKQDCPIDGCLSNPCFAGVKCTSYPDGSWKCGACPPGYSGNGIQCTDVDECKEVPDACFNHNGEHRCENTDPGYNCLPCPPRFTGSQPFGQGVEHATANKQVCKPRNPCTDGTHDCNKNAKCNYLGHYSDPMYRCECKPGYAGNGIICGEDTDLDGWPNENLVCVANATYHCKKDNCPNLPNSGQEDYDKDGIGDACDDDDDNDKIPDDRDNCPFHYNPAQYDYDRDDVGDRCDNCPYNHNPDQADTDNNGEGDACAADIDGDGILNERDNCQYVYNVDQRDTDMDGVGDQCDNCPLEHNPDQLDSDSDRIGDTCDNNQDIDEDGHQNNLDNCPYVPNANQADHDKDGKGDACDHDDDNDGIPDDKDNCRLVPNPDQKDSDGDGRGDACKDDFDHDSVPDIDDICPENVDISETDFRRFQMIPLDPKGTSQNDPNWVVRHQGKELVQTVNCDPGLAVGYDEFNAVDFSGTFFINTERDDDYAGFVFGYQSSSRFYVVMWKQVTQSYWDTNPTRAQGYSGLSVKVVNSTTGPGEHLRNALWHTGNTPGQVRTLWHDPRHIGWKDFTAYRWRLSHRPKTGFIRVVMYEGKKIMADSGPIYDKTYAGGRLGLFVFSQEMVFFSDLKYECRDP
Chain of TSP-1 protein expressed by PMA-differentiated THP-1 macrophage-like cells (P07996 19-1170 limits assumed): as above

| Binder | Mean (relative fluorescence intensity), 293-TGFβ Res reporter cells [1] | Blocking rate (Mean, %) [2] [%] | IC50 [3] [µM] |
| --- | --- | --- | --- |
| Ac-TQDAEDNTASF-NH2 [SEQ ID NO: 31] | 0.79 ratio to negative control | – | – |
| Ac-TQDAEDPTA-NH2 [SEQ ID NO: 22] | 0.74 ratio to negative control | 40.9 | 7.2 |
| B1 | 0.77 ratio to negative control | 37.5 | 7.7 |
| Ac-TQDAED-NH2 [SEQ ID NO: 04] | 0.77 ratio to negative control | – | – |
| Ac-QDAEDNTAS-NH2 [SEQ ID NO: 23] | – | 22.8 | 22.9 |
| Ac-TQDAEDN-NH2 (also called TQDAEDN) [SEQ ID NO: 06] | 0.65 ratio to negative control | 17.7 | 12.7 |
| Ac-TQDPEDN-NH2 (also called TQDPEDN) [SEQ ID NO: 14] | 0.7 ratio to negative control | 27.9 | 4.76 |
| Ac-TQDAEDNT-NH2 [SEQ ID NO: 15] | – | 30.6 | 5.65 |
| Ac-TQDPAED-NH2 [SEQ ID NO: 47] | 0.8 ratio to negative control | – | – |
| B2 | 0.52 ratio to negative control | 46 | 5.96 |
| Ac-TQDPED-NH2 [SEQ ID NO: 03] | 0.7 ratio to negative control | – | – |
| Ac-TQDAEDNTASH-NH2 [SEQ ID NO: 33] | 0.67 ratio to negative control | 21.4 | 14.3 |
| Ac-QDAEDN-NH2 [SEQ ID NO: 05] | 0.83 ratio to negative control | – | – |
| B3 | 0.84 ratio to negative control | 23.4 | 10.6 |
| Ac-TQDPAEDN-NH2 [SEQ ID NO: 48] | – | 29.7 | 11.7 |
| TQDPEDN (Head-to-tail cyclization) [SEQ ID NO: 41] | 0.62 ratio to negative control | – | – |
| TQDAEDNK (lactam 3-8) [SEQ ID NO: 42] | 0.67 ratio to negative control | – | – |
| Ac-TQDAEDNTV-NH2 [SEQ ID NO: 17] | 0.78 ratio to negative control | – | – |
| Ac-TQDAEDNTQD-NH2 [SEQ ID NO: 49] | – | 30.2 | 10.1 |
| Ac-TQDAEDNTAS-NH2 [SEQ ID NO: 24] | 0.57 ratio to negative control | 32.6 | 10.6 |
| TQDPEDNTAS (Head-to-tail cyclization, cyclic peptide) [SEQ ID NO: 46] | 0.69 ratio to negative control | 56.1 | 1.4 |
| Ac-TQDAEDPTAS-NH2 [SEQ ID NO: 25] | 0.73 ratio to negative control | 33 | 7.4 |
| Ac-TQDPEDNTAS-NH2 [SEQ ID NO: 26] | 0.68 ratio to negative control | 53.8 | 3.4 |
| Ac-TQDAEDNTVSFLQ-NH2 [SEQ ID NO: 36] | 0.83 ratio to negative control | 23.1 | 4.85 |
